The record followed here is US9949489B2, “Methods for control of hemipteran insect stylet sheath structure formation” (The United States of America, as Represented by the …, priority 2015, dated 2018).

For experiment [1], the system named is D. citri. Briefly: Liquid ACP diet sandwich feeding assay (MFC): inhibition of de novo stylet sheath formation. It counts as in vivo, Diaphorina citri. Details: key: −: No effect apparent; +/−: inconclusive; +: apparent slight effect; ++: increased apparent effect; +++: high effect; ++++: very high effect; +++++: complete degradation of sheaths or inhibition of sheath synthesis. The note with it: enzyme in liquid ACP diet, about 24 h, 25° C., enzyme amounts and pH per Table 5 (cellulase approx 1 unit/μl). The protocol: (§1) The next step was to determine if addition of cellulase to the diet of D. citri would interfere with stylet sheath formation. A D. citri diet is prepared as described by Hall, David et al., “Research toward an artificial diet for adult Asian citrus psyllid,” Annals of the Entomological Society of America 103.4:611-617 (2010). Approximately 25 D. citri were collected into polystyrene Cellstar 35 mm×10 mm dishes (Griener Bio-One, Monroe, N.C.) that were then sealed using a single layer of Parafilm® M (Pechiney Plastic Packaging Company, Chicago, Ill.). Approximately 99 μl of liquid ACP diet (e.g., diet lacking the solidifying agar component, see Hall, et. al., 2010, supra) was mixed with approximately 1 μl of cellulase (Sigma Aldrich, St. Louis, Mo.) and mixed. […]
(§2) Because many biomolecule polymerizing enzymes require divalent cations as cofactors, the effect of ethylenediaminetetraacetic acid (EDTA), a chelator of divalent cations, on ACP SS formation was tested by adding EDTA to the previously described liquid ACP diet (see Hall et al., 2010, supra). […] Uncommon bands between the liquid ACP diet containing EDTA and liquid ACP diet without EDTA (negative control) lanes were cut out and analyzed by Orbitrap (Thermo Scientific, Waltham, Mass.) protein analysis, according to manufacturer's protocol. […]

The subject of experiment [2] is D. citri. The description is as above. The note with it: about 24 h; cellulase approx 1 unit/μl; BAPN 100 mM; EDTA approx 2 mM; proteases per Table 5. It counts as in vivo, Diaphorina citri. The protocol:
as §1, §2

For experiment [3], the system named is D. citri stylet sheaths (ACP SSs). As to the kind of experiment: Degradation of preformed, solidified stylet sheaths by enzymes (MFC membrane or slide incubation). Details: species or system Diaphorina citri; key to Sheath Degradation: −: No effect apparent; +/−: inconclusive; +: apparent slight effect; ++: increased apparent effect; +++: high effect; ++++: very high effect; +++++: complete degradation of sheaths or inhibition of sheath synthesis. The note with it: for Sheath Degradation: enzyme concentration, pH and temperature per Table 4 (cellulase 1:25, pH 6.0, 60° C.); for Effect on preformed D. citri stylet sheaths: cellulase 1:25, pH 6.0, 60° C., 72 hours, Flavourzyme about 30 minutes, proteinase K 55° C. overnight. The protocol: In order to test cellulase's effect on preformed ACP SSs, formed, solidified stylet sheaths were harvested directly from the surface of an MFC membrane (in these experiments either plastic wrap or parafilm was used) as described herein and in Morgan et al. 2013, supra. Approximately 100 psyllids were placed into an MFC for about 24 hours. The MFCs consisted of D. citri caged individually and/or in groups within 100 mm×15 mm plastic Petri dishes. A single kitchen plastic wrap layer was stretched across the top of each Petri dish to seal the Petri dish from insect escape and to provide a stylet penetrable surface for insect probing.
Several MFCs (the Petri dishes covered with kitchen plastic wrap or parafilm and containing D. citri) were placed into clear Pyrex® baking dishes with the membrane (kitchen plastic wrap or parafilm) side up, and the Pyrex® baking dish is covered with a single layer of clear kitchen plastic wrap to prevent external contaminant interactions with the membrane surface during incubation. MFCs were incubated at a temperature of about 25° C., relative humidity of about 75%, and a light:dark cycle of about 14:1. Collection of partial stylet sheaths, shaft/branching portions without the flange, was performed using deionized water applied directly to the sheath surface to wash the surface of the MFC, and then the application of approximately 100 μl of an approximately 50 mM sodium phosphate buffer at a pH of approximately 6.0 for direct harvest of partial sheaths from the membrane surface using a bent glass rod to scour the plastic wrap surface to dislodge the stylet sheaths. The sodium phosphate buffer containing dislodged sheath shafts was removed using a pipette and placed in a microcentrifuge tube (1.5 ml tube), and cellulase (Sigma #C2605, Sigma Aldrich, St. Louis, Mo.) was added by ratio at approximately 1 part cellulase to 25 parts sodium phosphate buffer (approximately 1:25 ratio). Approximately 15 μl was then transferred to a pre-cleaned glass slide (Fisher, #12-550-19, Thermo Fisher Scientific, Inc., Waltham Mass.), covered with a premium cover slip, and edges sealed using clear nail polish CG, 3INI NL #Q004 SHN ON (CoverGirl, Hunt Valley, Md.) to keep the buffer from evaporating during incubation. This slide was then placed in an approximately 60° C. incubator of about 72 hours and observed at about 24 hour intervals.
FIGS. 3A, 3B, and 3C and FIGS. 3D, 3E, and 3F are light micrograph pictures of repeated experiments representing separate treatment of two salivary sheaths. FIG. 3A and FIG. 3D are separate salivary sheaths prior to the addition of cellulase. FIG. 3B and FIG. 3E are the same sheaths, respectively, after 72 hours incubation with cellulase. FIG. 3C and FIG. 3F are the same sheaths, respectively, when gentle pressure was applied to the coverslip over the sheaths that had been incubated with cellulase for 72 hours. […] Because of the observed result with cellulase, sheath degradation experiments as described above for cellulase were performed using a number of polysaccharide-degrading enzymes and proteases. […] Both carbohydrate-degrading enzymes and proteases were effective at degrading the sheaths.
While not wishing to be bound to any particular hypothesis, based on the results of Examples 1, 2, and 3, it is hypothesized that the structure of the ACP SSs could include protein cross-links that are catalyzed by an enzyme with an oxidative role, an enzyme at least somewhat similar to a lysyl oxidase. To determine if a protein is associated with the identified glucan, proteases were tested in experiments similar to Examples 1 and 2 above. The following proteases were added individually in separate experiments (described infra) to membranes on which D. citri adults were previously allowed to first form sheaths in the absence of proteases: Flavourzyme® (a protease cocktail), carboxypeptidase W, chymopapain, bromelain, papain, ficin, licheninase, laminarinase, and β-(1→3)-D-glucanase. […]

B1: Trypsin from bovine pancreas: Serine peptidase; Sigma #T8658 (protein, UniProt P00760 24-246, looked up)
Serine protease 1: IVGGYTCGANTVPYQVSLNSGYHFCGGSLINSQWVVSAAHCYKSGIQVRLGEDNINVVEGNEQFISASKSIVHPSYNSNTLNNDIMLIKLKSAASLNSRVASISLPTSCASAGTQCLISGWGNTKSSGTSYPDVLKCLKAPILSDSSCKSAYPGQITSNMFCAGYLEGGKDSCQGDSGGPVVCSGKLQGIVSWGSGCAQKNKPGVYTKVCNYVSWIKQTIASN
For B1, the “Inhibition of Sheath Formation” value in the experiment on D. citri [1] is “−”. Moreover, the “Effect on D. citri stylet sheath formation in liquid ACP diet” value with D. citri [2] was “did not appear to have an inhibitory effect”. Further, in experiment [3] (D. citri preformed sheaths), the “Sheath Degradation” value is reported as “−”.

B2: Proteinase K from Tritirachium album: Broad protease specificity; Fischer #BP1700-100 (protein, UniProt P06873 106-384, looked up)
Proteinase K: AAQTNAPWGLARISSTSPGTSTYYYDESAGQGSCVYVIDTGIEASHPEFEGRAQMVKTYYYSSRDGNGHGTHCAGTVGSRTYGVAKKTQLFGVKVLDDNGSGQYSTIIAGMDFVASDKNNRNCPKGVVASLSLGGGYSSSVNSAAARLQSSGVMVAVAAGNNNADARNYSPASEPSVCTVGASDRYDRRSSFSNYGSVLDIFGPGTSILSTWIGGSTRSISGTSMATPHVAGLAAYLMTLGKTTAASACRYIADTANKGDLSNIPFGTVNLLAYNNYQA
On to B2, for which the “Sheath Degradation” value in experiment [3] (D. citri preformed sheaths) is on record as “+++++”. In addition, the “Effect on preformed D. citri stylet sheaths” value in experiment [3] is listed as “completely dissolves”.

B3: Papain from papaya latex: Cysteine peptidase; Sigma #P5306 (protein, UniProt P00784 134-345, looked up)
Papain: IPEYVDWRQKGAVTPVKNQGSCGSCWAFSAVVTIEGIIKIRTGNLNEYSEQELLDCDRRSYGCNGGYPWSALQLVAQYGIHYRNTYPYEGVQRYCRSREKGPYAAKTDGVRQVQPYNEGALLYSIANQPVSVVLEAAGKDFQLYRGGIFVGPCGNKVDHAVAAVGYGPNYILIKNSWGTGWGENGYIRIKRGTGNSYGVCGLYTSSFYPVKN
For B3, the “Inhibition of Sheath Formation” value in the experiment on D. citri [1] is “++++”. The “Effect on D. citri stylet sheath formation in liquid ACP diet” value with D. citri [2] is “capable of inhibiting the formation of ACP SSs”. In addition, the “Sheath Degradation” value in experiment [3] (D. citri preformed sheaths) was “++”.

B4: Amyloglucosidase from Aspergillus niger: Hydrolyses α-D-(1-4), α-D-(1-6) and α-D-(1-3) glucosidic bonds of oligosaccharides; Sigma #A7420 (protein, UniProt P69328 25-640, looked up)
Glucoamylase: ATLDSWLSNEATVARTAILNNIGADGAWVSGADSGIVVASPSTDNPDYFYTWTRDSGLVLKTLVDLFRNGDTSLLSTIENYISAQAIVQGISNPSGDLSSGAGLGEPKFNVDETAYTGSWGRPQRDGPALRATAMIGFGQWLLDNGYTSTATDIVWPLVRNDLSYVAQYWNQTGYDLWEEVNGSSFFTIAVQHRALVEGSAFATAVGSSCSWCDSQAPEILCYLQSFWTGSFILANFDSSRSGKDANTLLGSIHTFDPEAACDDSTFQPCSPRALANHKEVVDSFRSIYTLNDGLSDSEAVAVGRYPEDTYYNGNPWFLCTLAAAEQLYDALYQWDKQGSLEVTDVSLDFFKALYSDAATGTYSSSSSTYSSIVDAVKTFADGFVSIVETHAASNGSMSEQYDKSDGEQLSARDLTWSYAALLTANNRRNSVVPASWGETSASSVPGTCAATSAIGTYSSVTVTSWPSIVATGGTTTTATPTGSGSVTSTSKTTATASKTSTSTSSTSCTTPTAVAVTFDLTATTTYGENIYLVGSISQLGDWETSDGIALSADKYTSSDPLWYVTVTLPAGESFEYKFIRIESDDSVEWESDPNREYTVPQACGTSTATVTDTWR
As to B4, in experiment [3] (D. citri preformed sheaths), the “Sheath Degradation, remark in words” value was “Sheaths swell” and the “Sheath Degradation” value is on record as “++”. For the same molecule, the “Effect on preformed D. citri stylet sheaths” value in experiment [3] is “adversely impact stylet sheath integrity”.
